Patent publication US20160271230A1 (UNIVERSITY HEALTH NETWORK, published 2016)
No end group written: not given here.

Tests used:
[1] = biological target: T1, His-tagged 6FNIII-domain of Neogenin (Gallus gallus, UniProt Q90610 429-1036); assay: complementary plate assay, RGMa peptides fused with AP (FIG. 9)
T1 construct: also called His-6FNIII; His-FNIII; not shown: His tag
T1 sequence: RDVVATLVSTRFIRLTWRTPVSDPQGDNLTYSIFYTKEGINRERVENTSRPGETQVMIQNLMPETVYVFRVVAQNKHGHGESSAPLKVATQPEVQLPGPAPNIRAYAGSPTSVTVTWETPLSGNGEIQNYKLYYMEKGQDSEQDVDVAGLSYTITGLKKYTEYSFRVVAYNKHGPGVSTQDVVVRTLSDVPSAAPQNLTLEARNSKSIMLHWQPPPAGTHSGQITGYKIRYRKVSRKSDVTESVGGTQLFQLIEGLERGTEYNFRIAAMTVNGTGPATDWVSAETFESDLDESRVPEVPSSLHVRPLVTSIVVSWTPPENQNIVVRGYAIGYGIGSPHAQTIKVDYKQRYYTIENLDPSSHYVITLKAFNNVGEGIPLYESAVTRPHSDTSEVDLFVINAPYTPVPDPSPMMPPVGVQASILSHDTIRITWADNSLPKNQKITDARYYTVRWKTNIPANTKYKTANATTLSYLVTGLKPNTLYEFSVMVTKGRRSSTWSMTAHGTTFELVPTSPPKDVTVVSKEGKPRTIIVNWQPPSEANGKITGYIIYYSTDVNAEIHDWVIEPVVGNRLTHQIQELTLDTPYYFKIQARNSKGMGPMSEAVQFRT
Method: (§1) (A) Different RGMa-AP proteins were incubated on wells coated with the 4Ig 6FNIII or BSA. […] Data were average±SEM (n=3 independent experiments), *p<0.005. (B) Quantification of a binding assay where 4Ig-AP and 6FNIII-AP proteins were assayed on wells coated with proteins from different RGMa regions. […] C-RGMa proteins and full length RGMa only bound 6FNIII. Data were average±SEM (n=3 independent experiments), *p<0.005. […] Quantification of a binding assay where N-RGMa-AP was assayed on wells coated with proteins DCC-4Ig and Neogenin-4Ig. In this experiment Neogenin-4Ig but not DCC-4Ig interacted with N-Raft-AP. Data were average±SEM (n=4 independent experiments), *p<0.005. (D) Cis-interaction between the 4Ig domain of Neogenin and N-Raft is required for localization of Neogenin in lipid rafts. HEK-293 cells were transfected with Neogenin and RGMa constructs. BMP2 (100 nM) was added to the medium 1 hour before cells were collected. Western blotting was performed following lipid raft fractionation. Flotillin was used as a marker for lipid raft fractions, whereas the transferrin receptor (TfR) was used as a marker for heavy membrane-fractions. Every experiment was repeated twice. […] In the first set of experiments, cells were only transfected with Neogenin. […]

[2] = biological target: T2, His-tagged 4Ig-domain of Neogenin (Gallus gallus, UniProt Q90610 1-383); assay: complementary plate assay, RGMa peptides fused with AP on coated Neogenin domains (FIG. 9)
T2 construct: Secreted from transfected cells, purified on Ni-NTA; also called His-4Ig; Neogenin-4Ig; not shown: 6-His tag at the N-terminus; myc and 6-His tags of the pSectag 2B vector at the C-terminus
T2 sequence: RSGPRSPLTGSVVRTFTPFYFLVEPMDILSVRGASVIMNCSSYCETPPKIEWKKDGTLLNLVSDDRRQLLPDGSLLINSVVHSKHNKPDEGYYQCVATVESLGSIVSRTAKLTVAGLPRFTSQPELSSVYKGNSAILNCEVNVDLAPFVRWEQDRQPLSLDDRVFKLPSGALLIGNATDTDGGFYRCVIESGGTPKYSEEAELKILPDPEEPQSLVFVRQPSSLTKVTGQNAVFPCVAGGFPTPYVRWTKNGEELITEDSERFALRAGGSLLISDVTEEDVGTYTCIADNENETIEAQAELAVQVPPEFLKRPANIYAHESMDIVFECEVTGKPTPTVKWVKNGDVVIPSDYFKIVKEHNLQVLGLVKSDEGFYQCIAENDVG
Method: as §1

B1: N-inh fused with alkaline phosphatase (peptide)
chain: GDLAYHSAVHGIDDLMVQHNCSKDGPTSQPRLRTLPP
modifications: also: alkaline phosphatase tag, sequence and position not given here
notes: also called N-inh-AP; not shown: alkaline phosphatase (AP)
[1]
  binding result: binds
[2]
  binding result: no binding
